In PMC4017264 (Molecular Cell, 2014):

Test system: endogenous OTULIN
Experiment: coimmunoprecipitation of endogenous OTULIN with tagged HOIP/HOIL-1
Type: cell-based
Details: tagged HOIP/HOIL-1 constructs, HEK293T or U2OS/NOD2 cells, western blot
Protocol: Transfected HEK293T or U2OS and NOD2 cells were lysed in the presence of protease and phosphatase inhibitors. Clarified lysates were incubated overnight with anti-V5 and anti-HA-agarose resin. […]
siOTULIN: […], siMM […]
Immunoprecipitation of HOIP-V5 and HA-OTULIN
HEK293T or U2OS/NOD2 cells were transfected as indicated. The cells were lysed in IP buffer buffer (25 mM HEPES pH 7.4, 150 mM KCl, 2 mM MgCl2, 1 mM EGTA, 0.5% (v/v) Triton X-100) supplemented with 5 mM NEM (Sigma-Aldrich), cOmplete protease inhibitor cocktail (Roche) and PhosSTOP
(Roche). After 30 minutes on ice, the lysates were cleared by centrifugation and incubated overnight at 4 °C with anti-V5-agarose resin or anti-HA-agarose resin. The beads were washed four times in ice-cold IP buffer and the precipitated material was eluted with 0.2 M glycine, pH 2.5. […]

| Molecule | coimmunoprecipitation of endogenous OTULIN (in words) |
| --- | --- |
| HOIL-1: epitope-tagged HOIL-1, LUBAC component (protein) MDEKTKKAEEMALSLTRAVAGGDEQVAMKCAIWLAEQRVPLSVQLKPEVSPTQDIRLWVSVEDAQMHTVTIWLTVRPDMTVASLKDMVFLDYGFPPVLQQWVIGQRLARDQETLHSHGVRQNGDSAYLYLLSARNTSLNPQELQRERQLRMLEDLGFKDLTLQPRGPLEPGPPKPGVPQEPGRGQPDAVPEPPPVGWQCPGCTFINKPTRPGCEMCCRARPEAYQVPASYQPDEEERARLAGEEEALRQYQQRKQQQQEGNYLQHVQLDQRSLVLNTEPAECPVCYSVLAPGEAVVLRECLHTFCRECLQGTIRNSQEAEVSCPFIDNTYSCSGKLLEREIKALLTPEDYQRFLDLGISIAENRSAFSYHCKTPDCKGWCFFEDDVNEFTCPVCFHVNCLLCKAIHEQMNCKEYQEDLALRAQNDVAARQTTEMLKVMLQQGEAMRCPQCQIVVQKKDGCDWIRCTVCHTEICWVTKGPRWGPGGPGDTSGGCRCRVNGIPCHPSCQNCH | OTULIN interacts with HOIP but not HOIL-1 |
| N-terminal 185 amino acids (aa) spanning the PUB domain of HOIP: HOIP truncation (protein, UniProt Q96EP0 1-185, looked up, fragment) MPGEEEERAFLVAREELASALRRDSGQAFSLEQLRPLLASSLPLAARYLQLDAARLVRCNAHGEPRNYLNTLSTALNILEKYGRNLLSPQRPRYWRGVKFNNPVFRSTVDAVQGGRDVLRLYGYTEEQPDGLSFPEGQEEPDEHQVATVTLEVLLLRTELSLLLQNTHPRQQALEQLLEDKVEDD | sufficient to coimmunoprecipitate endogenous OTULIN |
| aa 1–436: HOIP construct aa 1–436, also including B box and NZF domains (protein, UniProt Q96EP0 1-436, looked up, fragment) MPGEEEERAFLVAREELASALRRDSGQAFSLEQLRPLLASSLPLAARYLQLDAARLVRCNAHGEPRNYLNTLSTALNILEKYGRNLLSPQRPRYWRGVKFNNPVFRSTVDAVQGGRDVLRLYGYTEEQPDGLSFPEGQEEPDEHQVATVTLEVLLLRTELSLLLQNTHPRQQALEQLLEDKVEDDMLQLSEFDPLLREIAPGPLTTPSVPGSTPGPCFLCGSAPGTLHCPSCKQALCPACDHLFHGHPSRAHHLRQTLPGVLQGTHLSPSLPASAQPRPQSTSLLALGDSSLSSPNPASAHLPWHCAACAMLNEPWAVLCVACDRPRGCKGLGLGTEGPQGTGGLEPDLARGRWACQSCTFENEAAAVLCSICERPRLAQPPSLVVDSRDAGICLQPLQQGDALLASAQSQVWYCIHCTFCNSSPGWVCVMCNRTS | OTULIN interaction was increased |
| HOIP: epitope-tagged HOIP, LUBAC E3 ligase component (protein, UniProt Q96EP0 1-1072, looked up, epitope tag) E3 ubiquitin-protein ligase …: MPGEEEERAFLVAREELASALRRDSGQAFSLEQLRPLLASSLPLAARYLQLDAARLVRCNAHGEPRNYLNTLSTALNILEKYGRNLLSPQRPRYWRGVKFNNPVFRSTVDAVQGGRDVLRLYGYTEEQPDGLSFPEGQEEPDEHQVATVTLEVLLLRTELSLLLQNTHPRQQALEQLLEDKVEDDMLQLSEFDPLLREIAPGPLTTPSVPGSTPGPCFLCGSAPGTLHCPSCKQALCPACDHLFHGHPSRAHHLRQTLPGVLQGTHLSPSLPASAQPRPQSTSLLALGDSSLSSPNPASAHLPWHCAACAMLNEPWAVLCVACDRPRGCKGLGLGTEGPQGTGGLEPDLARGRWACQSCTFENEAAAVLCSICERPRLAQPPSLVVDSRDAGICLQPLQQGDALLASAQSQVWYCIHCTFCNSSPGWVCVMCNRTSSPIPAQHAPRPYASSLEKGPPKPGPPRRLSAPLPSSCGDPEKQRQDKMREEGLQLVSMIREGEAAGACPEEIFSALQYSGTEVPLQWLRSELPYVLEMVAELAGQQDPGLGAFSCQEARRAWLDRHGNLDEAVEECVRTRRRKVQELQSLGFGPEEGSLQALFQHGGDVSRALTELQRQRLEPFRQRLWDSGPEPTPSWDGPDKQSLVRRLLAVYALPSWGRAELALSLLQETPRNYELGDVVEAVRHSQDRAFLRRLLAQECAVCGWALPHNRMQALTSCECTICPDCFRQHFTIALKEKHITDMVCPACGRPDLTDDTQLLSYFSTLDIQLRESLEPDAYALFHKKLTEGVLMRDPKFLWCAQCSFGFIYEREQLEATCPQCHQTFCVRCKRQWEEQHRGRSCEDFQNWKRMNDPEYQAQGLAMYLQENGIDCPKCKFSYALARGGCMHFHCTQCRHQFCSGCYNAFYAKNKCPEPNCRVKKSLHGHHPRDCLFYLRDWTALRLQKLLQDNNVMFNTEPPAGARAVPGGGCRVIEQKEVPNGLRDEACGKETPAGYAGLCQAHYKEYLVSLINAHSLDPATLYEVEELETATERYLHVRPQPLAGEDPPAYQARLLQKLTEEVPLGQSIPRRRK | copurified endogenous OTULIN |
| N102D: V5-tagged HOIP with point mutation N102D in the PUB binding site (protein, UniProt Q96EP0 1-1072, looked up, variant N102D, V5 tag) E3 ubiquitin-protein ligase …: MPGEEEERAFLVAREELASALRRDSGQAFSLEQLRPLLASSLPLAARYLQLDAARLVRCNAHGEPRNYLNTLSTALNILEKYGRNLLSPQRPRYWRGVKFNDPVFRSTVDAVQGGRDVLRLYGYTEEQPDGLSFPEGQEEPDEHQVATVTLEVLLLRTELSLLLQNTHPRQQALEQLLEDKVEDDMLQLSEFDPLLREIAPGPLTTPSVPGSTPGPCFLCGSAPGTLHCPSCKQALCPACDHLFHGHPSRAHHLRQTLPGVLQGTHLSPSLPASAQPRPQSTSLLALGDSSLSSPNPASAHLPWHCAACAMLNEPWAVLCVACDRPRGCKGLGLGTEGPQGTGGLEPDLARGRWACQSCTFENEAAAVLCSICERPRLAQPPSLVVDSRDAGICLQPLQQGDALLASAQSQVWYCIHCTFCNSSPGWVCVMCNRTSSPIPAQHAPRPYASSLEKGPPKPGPPRRLSAPLPSSCGDPEKQRQDKMREEGLQLVSMIREGEAAGACPEEIFSALQYSGTEVPLQWLRSELPYVLEMVAELAGQQDPGLGAFSCQEARRAWLDRHGNLDEAVEECVRTRRRKVQELQSLGFGPEEGSLQALFQHGGDVSRALTELQRQRLEPFRQRLWDSGPEPTPSWDGPDKQSLVRRLLAVYALPSWGRAELALSLLQETPRNYELGDVVEAVRHSQDRAFLRRLLAQECAVCGWALPHNRMQALTSCECTICPDCFRQHFTIALKEKHITDMVCPACGRPDLTDDTQLLSYFSTLDIQLRESLEPDAYALFHKKLTEGVLMRDPKFLWCAQCSFGFIYEREQLEATCPQCHQTFCVRCKRQWEEQHRGRSCEDFQNWKRMNDPEYQAQGLAMYLQENGIDCPKCKFSYALARGGCMHFHCTQCRHQFCSGCYNAFYAKNKCPEPNCRVKKSLHGHHPRDCLFYLRDWTALRLQKLLQDNNVMFNTEPPAGARAVPGGGCRVIEQKEVPNGLRDEACGKETPAGYAGLCQAHYKEYLVSLINAHSLDPATLYEVEELETATERYLHVRPQPLAGEDPPAYQARLLQKLTEEVPLGQSIPRRRK | abrogated OTULIN binding |
| Y82A: V5-tagged HOIP with point mutation Y82A in the PUB binding site (protein, left off: V5, end not stated, kept) MPGEEEERAFLVAREELASALRRDSGQAFSLEQLRPLLASSLPLAARYLQLDAARLVRCNAHGEPRNYLNTLSTALNILEKAGRNLLSPQRPRYWRGVKFNNPVFRSTVDAVQGGRDVLRLYGYTEEQPDGLSFPEGQEEPDEHQVATVTLEVLLLRTELSLLLQNTHPRQQALEQLLEDKVEDDMLQLSEFDPLLREIAPGPLTTPSVPGSTPGPCFLCGSAPGTLHCPSCKQALCPACDHLFHGHPSRAHHLRQTLPGVLQGTHLSPSLPASAQPRPQSTSLLALGDSSLSSPNPASAHLPWHCAACAMLNEPWAVLCVACDRPRGCKGLGLGTEGPQGTGGLEPDLARGRWACQSCTFENEAAAVLCSICERPRLAQPPSLVVDSRDAGICLQPLQQGDALLASAQSQVWYCIHCTFCNSSPGWVCVMCNRTSSPIPAQHAPRPYASSLEKGPPKPGPPRRLSAPLPSSCGDPEKQRQDKMREEGLQLVSMIREGEAAGACPEEIFSALQYSGTEVPLQWLRSELPYVLEMVAELAGQQDPGLGAFSCQEARRAWLDRHGNLDEAVEECVRTRRRKVQELQSLGFGPEEGSLQALFQHGGDVSRALTELQRQRLEPFRQRLWDSGPEPTPSWDGPDKQSLVRRLLAVYALPSWGRAELALSLLQETPRNYELGDVVEAVRHSQDRAFLRRLLAQECAVCGWALPHNRMQALTSCECTICPDCFRQHFTIALKEKHITDMVCPACGRPDLTDDTQLLSYFSTLDIQLRESLEPDAYALFHKKLTEGVLMRDPKFLWCAQCSFGFIYEREQLEATCPQCHQTFCVRCKRQWEEQHRGRSCEDFQNWKRMNDPEYQAQGLAMYLQENGIDCPKCKFSYALARGGCMHFHCTQCRHQFCSGCYNAFYAKNKCPEPNCRVKKSLHGHHPRDCLFYLRDWTALRLQKLLQDNNVMFNTEPPAGARAVPGGGCRVIEQKEVPNGLRDEACGKETPAGYAGLCQAHYKEYLVSLINAHSLDPATLYEVEELETATERYLHVRPQPLAGEDPPAYQARLLQKLTEEVPLGQSIPRRRK | abrogated OTULIN binding |

Same assay, conditions: tagged HOIP/HOIL-1 constructs, HEK293T or U2OS/NOD2 cells, western blot; listed as wild-type HOIP

| Molecule | coimmunoprecipitation of endogenous OTULIN (in words) |
| --- | --- |
| HOIP: epitope-tagged HOIP, LUBAC E3 ligase component (protein, UniProt Q96EP0 1-1072, looked up, epitope tag) E3 ubiquitin-protein ligase …: MPGEEEERAFLVAREELASALRRDSGQAFSLEQLRPLLASSLPLAARYLQLDAARLVRCNAHGEPRNYLNTLSTALNILEKYGRNLLSPQRPRYWRGVKFNNPVFRSTVDAVQGGRDVLRLYGYTEEQPDGLSFPEGQEEPDEHQVATVTLEVLLLRTELSLLLQNTHPRQQALEQLLEDKVEDDMLQLSEFDPLLREIAPGPLTTPSVPGSTPGPCFLCGSAPGTLHCPSCKQALCPACDHLFHGHPSRAHHLRQTLPGVLQGTHLSPSLPASAQPRPQSTSLLALGDSSLSSPNPASAHLPWHCAACAMLNEPWAVLCVACDRPRGCKGLGLGTEGPQGTGGLEPDLARGRWACQSCTFENEAAAVLCSICERPRLAQPPSLVVDSRDAGICLQPLQQGDALLASAQSQVWYCIHCTFCNSSPGWVCVMCNRTSSPIPAQHAPRPYASSLEKGPPKPGPPRRLSAPLPSSCGDPEKQRQDKMREEGLQLVSMIREGEAAGACPEEIFSALQYSGTEVPLQWLRSELPYVLEMVAELAGQQDPGLGAFSCQEARRAWLDRHGNLDEAVEECVRTRRRKVQELQSLGFGPEEGSLQALFQHGGDVSRALTELQRQRLEPFRQRLWDSGPEPTPSWDGPDKQSLVRRLLAVYALPSWGRAELALSLLQETPRNYELGDVVEAVRHSQDRAFLRRLLAQECAVCGWALPHNRMQALTSCECTICPDCFRQHFTIALKEKHITDMVCPACGRPDLTDDTQLLSYFSTLDIQLRESLEPDAYALFHKKLTEGVLMRDPKFLWCAQCSFGFIYEREQLEATCPQCHQTFCVRCKRQWEEQHRGRSCEDFQNWKRMNDPEYQAQGLAMYLQENGIDCPKCKFSYALARGGCMHFHCTQCRHQFCSGCYNAFYAKNKCPEPNCRVKKSLHGHHPRDCLFYLRDWTALRLQKLLQDNNVMFNTEPPAGARAVPGGGCRVIEQKEVPNGLRDEACGKETPAGYAGLCQAHYKEYLVSLINAHSLDPATLYEVEELETATERYLHVRPQPLAGEDPPAYQARLLQKLTEEVPLGQSIPRRRK | coprecipitated OTULIN |
